Laboratory results taken from paper PMC2631437 (Molecular microbiology, 2008).
Positions count from the first letter of the chain named. Where no end group is shown, it is not given here. The star is where a group is joined. FITC = O=C1OC2(c3ccc(O)cc3Oc3cc(O)ccc32)c2ccc(NC(=S)*)cc21

Assays:
MotA wild type = molecular target: T1, MotA wild type (bacteriophage T4, UniProt P22915 1-211); test: EMSA
T1 sequence: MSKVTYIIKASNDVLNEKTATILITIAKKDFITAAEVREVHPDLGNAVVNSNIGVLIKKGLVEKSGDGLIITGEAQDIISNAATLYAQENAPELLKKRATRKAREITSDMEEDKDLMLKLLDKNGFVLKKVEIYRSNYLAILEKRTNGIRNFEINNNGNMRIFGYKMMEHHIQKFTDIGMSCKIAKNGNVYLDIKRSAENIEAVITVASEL

[1] = molecular target: T2, MotA, full length (wild type) (bacteriophage T4, UniProt P22915 1-211); test: NMR titration
T2 sequence (looked up): T1 sequence

[2] = molecular target: T2, MotA, full length (wild type); test: fluorescence polarisation
MotA S80R, full length = molecular target: T3, MotA S80R, full length (bacteriophage T4, UniProt P22915 1-211, S80R); test: fluorescence polarisation
T3 sequence (looked up): T1 sequence with S80R

MotA D43K, full length = molecular target: T4, MotA D43K, full length (bacteriophage T4, UniProt P22915 1-211, D43K); test: fluorescence polarisation
T4 sequence (looked up): T1 sequence with D43K

MotA K59E, full length = molecular target: T5, MotA K59E, full length (bacteriophage T4, UniProt P22915 1-211, K59E); test: fluorescence polarisation
T5 sequence (looked up): T1 sequence with K59E

MotA D67K, full length = molecular target: T6, MotA D67K, full length (bacteriophage T4, UniProt P22915 1-211, D67K); test: fluorescence polarisation
T6 sequence (looked up): T1 sequence with D67K

MotA K3E, full length = molecular target: T7, MotA K3E, full length (bacteriophage T4, UniProt P22915 1-211, K3E); test: fluorescence polarisation
T7 sequence (looked up): T1 sequence with K3E

MotA K28E, full length = molecular target: T8, MotA K28E, full length (bacteriophage T4, UniProt P22915 1-211, K28E); test: fluorescence polarisation
T8 sequence (looked up): T1 sequence with K28E

MotA Q76R, full length = molecular target: T9, MotA Q76R, full length (bacteriophage T4, UniProt P22915 1-211, Q76R); test: fluorescence polarisation
T9 sequence (looked up): T1 sequence with Q76R

AsiA = molecular target: T10, AsiA (bacteriophage T4, UniProt P32267 1-90); test: NMR titration
T10 sequence (looked up): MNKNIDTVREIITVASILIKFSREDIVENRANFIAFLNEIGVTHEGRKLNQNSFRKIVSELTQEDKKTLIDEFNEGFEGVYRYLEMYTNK

B1: 21 bp MotA box DNA (dsDNA)
DNA 1: GAATTATTTGCTTTAGATTAC
DNA 2: GTAATCTAAAGCAAATAATTC
Kd (MotA wild type): ~0.6 µM

B2: AsiA/σ4 complex (preformed binary complex of AsiA and σ^70 region 4, residues 533 to 613) (complex, bacteriophage T4 | E. coli)
chain 1: T10 sequence (looked up)
chain 2: DSATTESLRAATHDVLAGLTAREAKVLRMRFGIDMNTDYTLEEVGKQFDVTRERIRQIEAKALRKLRHPSRSEVLRSFLDD
binding result [1]: binds

{FITC}-PSRSEVLRSFLDD (peptide, UniProt P00579 601-613, looked up) [fluorescein-tagged σ4-H5 peptide (σ^70 residues 601-613)]
Kd [2]: 15.9 ± 1.3 µM | Kd (MotA S80R, full length): 44.7 ± 5 µM | Kd (MotA D43K, full length): 12 ± 1 µM | Kd (MotA K59E, full length): 10 ± 1 µM | Kd (MotA D67K, full length): 24.3 ± 0.1 µM | Kd (MotA K3E, full length): > 300 µM | Kd (MotA K28E, full length): > 300 µM | Kd (MotA Q76R, full length): 39.1 ± 5 µM

B3: σ4 (σ^70 region 4, residues 533 to 613) (domain or fragment, E. coli, UniProt P00579 533-613, looked up)
chain: B2 chain 2
binding result [1]: binds | binding result (AsiA): binds
